# From patent US20170266254A1 (AILERON THERAPEUTICS, published 2017)
# Bridges are numbered along the chain shown (N, C = ends). [ ]: non-standard residue; d: D form. R8 = C=CCCCCCC[C@@](C)(N)C(=O)O; S5 = C=CCCC[C@](C)(N)C(=O)O
# T1: C-terminally 6x Histidine-tagged Beta-Catenin (aa 134-668, 59 KD) (UniProt P35222 134-668)
# T1 construct: range 134-668; Armadillo repeat region
# T1 sequence: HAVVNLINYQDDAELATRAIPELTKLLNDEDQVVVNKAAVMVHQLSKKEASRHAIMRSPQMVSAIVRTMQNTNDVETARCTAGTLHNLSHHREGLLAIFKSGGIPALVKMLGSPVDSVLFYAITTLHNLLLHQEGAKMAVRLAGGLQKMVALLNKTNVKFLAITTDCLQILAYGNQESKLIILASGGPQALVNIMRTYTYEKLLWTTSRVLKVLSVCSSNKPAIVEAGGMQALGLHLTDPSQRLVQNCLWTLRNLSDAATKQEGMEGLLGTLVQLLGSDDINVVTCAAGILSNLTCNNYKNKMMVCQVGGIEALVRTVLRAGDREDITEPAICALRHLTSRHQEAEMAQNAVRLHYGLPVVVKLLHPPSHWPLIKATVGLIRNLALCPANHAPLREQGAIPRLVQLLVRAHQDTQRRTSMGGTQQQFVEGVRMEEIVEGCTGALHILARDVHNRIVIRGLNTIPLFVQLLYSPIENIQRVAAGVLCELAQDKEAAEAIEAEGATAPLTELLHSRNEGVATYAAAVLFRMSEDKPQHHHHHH
# B1: SP3 (peptide)
# peptide: Ac-RNLA[S5]VKS[S5]LVNES-NH2
# modifications: staple 5-9
# SMILES: CC(=O)N[C@@H](CCCNC(=N)N)C(=O)N[C@@H](CC(N)=O)C(=O)N[C@@H](CC(C)C)C(=O)N[C@@H](C)C(=O)N[C@@]1(C)CCCC=CCCC[C@@](C)(C(=O)N[C@@H](CC(C)C)C(=O)N[C@H](C(=O)N[C@@H](CC(N)=O)C(=O)N[C@@H](CCC(=O)O)C(=O)N[C@@H](CO)C(N)=O)C(C)C)NC(=O)[C@H](CO)NC(=O)[C@H](CCCCN)NC(=O)[C@H](C(C)C)NC1=O
# notes: also called Ac-RNLA$VKS$LVNES-NH2
# B2: SP42 (peptide)
# peptide: Ac-SA[S5]RNL[S5]DVKSSLV-NH2
# modifications: staple 3-7
# SMILES: CC(=O)N[C@@H](CO)C(=O)N[C@@H](C)C(=O)N[C@@]1(C)CCCC=CCCC[C@@](C)(C(=O)N[C@@H](CC(=O)O)C(=O)N[C@H](C(=O)N[C@@H](CCCCN)C(=O)N[C@@H](CO)C(=O)N[C@@H](CO)C(=O)N[C@@H](CC(C)C)C(=O)N[C@H](C(N)=O)C(C)C)C(C)C)NC(=O)[C@H](CC(C)C)NC(=O)[C@H](CC(N)=O)NC(=O)[C@H](CCCNC(=N)N)NC1=O
# notes: also called Ac-SA$RNL$DVKSSLV-NH2
# B3: SP21 (peptide)
# peptide: Ac-LGANDELISFK[R8]EGEQEE[S5]SSN-NH2
# modifications: staple 12-19
# SMILES: CC[C@H](C)[C@H](NC(=O)[C@H](CC(C)C)NC(=O)[C@H](CCC(=O)O)NC(=O)[C@H](CC(=O)O)NC(=O)[C@H](CC(N)=O)NC(=O)[C@H](C)NC(=O)CNC(=O)[C@H](CC(C)C)NC(C)=O)C(=O)N[C@@H](CO)C(=O)N[C@@H](Cc1ccccc1)C(=O)N[C@@H](CCCCN)C(=O)N[C@]1(C)CCCCCCC=CCCC[C@@](C)(C(=O)N[C@@H](CO)C(=O)N[C@@H](CO)C(=O)N[C@@H](CC(N)=O)C(N)=O)NC(=O)[C@H](CCC(=O)O)NC(=O)[C@H](CCC(=O)O)NC(=O)[C@H](CCC(N)=O)NC(=O)[C@H](CCC(=O)O)NC(=O)CNC(=O)[C@H](CCC(=O)O)NC1=O
# B4: SP44 (peptide)
# peptide: Ac-LGANDELISF[S5]DQG[S5]QQEKSSN-NH2
# modifications: staple 11-15
# SMILES: CC[C@H](C)[C@H](NC(=O)[C@H](CC(C)C)NC(=O)[C@H](CCC(=O)O)NC(=O)[C@H](CC(=O)O)NC(=O)[C@H](CC(N)=O)NC(=O)[C@H](C)NC(=O)CNC(=O)[C@H](CC(C)C)NC(C)=O)C(=O)N[C@@H](CO)C(=O)N[C@@H](Cc1ccccc1)C(=O)N[C@@]1(C)CCCC=CCCC[C@@](C)(C(=O)N[C@@H](CCC(N)=O)C(=O)N[C@@H](CCC(N)=O)C(=O)N[C@@H](CCC(=O)O)C(=O)N[C@@H](CCCCN)C(=O)N[C@@H](CO)C(=O)N[C@@H](CO)C(=O)N[C@@H](CC(N)=O)C(N)=O)NC(=O)CNC(=O)[C@H](CCC(N)=O)NC(=O)[C@H](CC(=O)O)NC1=O
# B5: SP40 (peptide)
# peptide: Ac-LGANDELISF[S5]DEG[S5]QQEKSSN-NH2
# modifications: staple 11-15
# SMILES: CC[C@H](C)[C@H](NC(=O)[C@H](CC(C)C)NC(=O)[C@H](CCC(=O)O)NC(=O)[C@H](CC(=O)O)NC(=O)[C@H](CC(N)=O)NC(=O)[C@H](C)NC(=O)CNC(=O)[C@H](CC(C)C)NC(C)=O)C(=O)N[C@@H](CO)C(=O)N[C@@H](Cc1ccccc1)C(=O)N[C@@]1(C)CCCC=CCCC[C@@](C)(C(=O)N[C@@H](CCC(N)=O)C(=O)N[C@@H](CCC(N)=O)C(=O)N[C@@H](CCC(=O)O)C(=O)N[C@@H](CCCCN)C(=O)N[C@@H](CO)C(=O)N[C@@H](CO)C(=O)N[C@@H](CC(N)=O)C(N)=O)NC(=O)CNC(=O)[C@H](CCC(=O)O)NC(=O)[C@H](CC(=O)O)NC1=O
# B6: SP41 (peptide)
# peptide: Ac-LGANDELISF[S5]DEG[S5]QEQKSSN-NH2
# modifications: staple 11-15
# SMILES: CC[C@H](C)[C@H](NC(=O)[C@H](CC(C)C)NC(=O)[C@H](CCC(=O)O)NC(=O)[C@H](CC(=O)O)NC(=O)[C@H](CC(N)=O)NC(=O)[C@H](C)NC(=O)CNC(=O)[C@H](CC(C)C)NC(C)=O)C(=O)N[C@@H](CO)C(=O)N[C@@H](Cc1ccccc1)C(=O)N[C@@]1(C)CCCC=CCCC[C@@](C)(C(=O)N[C@@H](CCC(N)=O)C(=O)N[C@@H](CCC(=O)O)C(=O)N[C@@H](CCC(N)=O)C(=O)N[C@@H](CCCCN)C(=O)N[C@@H](CO)C(=O)N[C@@H](CO)C(=O)N[C@@H](CC(N)=O)C(N)=O)NC(=O)CNC(=O)[C@H](CCC(=O)O)NC(=O)[C@H](CC(=O)O)NC1=O
# B7: SP39 (peptide)
# peptide: Ac-LGANDELISF[S5]DQG[S5]QEEKSSN-NH2
# modifications: staple 11-15
# SMILES: CC[C@H](C)[C@H](NC(=O)[C@H](CC(C)C)NC(=O)[C@H](CCC(=O)O)NC(=O)[C@H](CC(=O)O)NC(=O)[C@H](CC(N)=O)NC(=O)[C@H](C)NC(=O)CNC(=O)[C@H](CC(C)C)NC(C)=O)C(=O)N[C@@H](CO)C(=O)N[C@@H](Cc1ccccc1)C(=O)N[C@@]1(C)CCCC=CCCC[C@@](C)(C(=O)N[C@@H](CCC(N)=O)C(=O)N[C@@H](CCC(=O)O)C(=O)N[C@@H](CCC(=O)O)C(=O)N[C@@H](CCCCN)C(=O)N[C@@H](CO)C(=O)N[C@@H](CO)C(=O)N[C@@H](CC(N)=O)C(N)=O)NC(=O)CNC(=O)[C@H](CCC(N)=O)NC(=O)[C@H](CC(=O)O)NC1=O
# B8: SP46 (peptide)
# peptide: Ac-LGANDELISF[S5]DEG[S5]QQQKSSN-NH2
# modifications: staple 11-15
# SMILES: CC[C@H](C)[C@H](NC(=O)[C@H](CC(C)C)NC(=O)[C@H](CCC(=O)O)NC(=O)[C@H](CC(=O)O)NC(=O)[C@H](CC(N)=O)NC(=O)[C@H](C)NC(=O)CNC(=O)[C@H](CC(C)C)NC(C)=O)C(=O)N[C@@H](CO)C(=O)N[C@@H](Cc1ccccc1)C(=O)N[C@@]1(C)CCCC=CCCC[C@@](C)(C(=O)N[C@@H](CCC(N)=O)C(=O)N[C@@H](CCC(N)=O)C(=O)N[C@@H](CCC(N)=O)C(=O)N[C@@H](CCCCN)C(=O)N[C@@H](CO)C(=O)N[C@@H](CO)C(=O)N[C@@H](CC(N)=O)C(N)=O)NC(=O)CNC(=O)[C@H](CCC(=O)O)NC(=O)[C@H](CC(=O)O)NC1=O
# B9: SP53 (peptide)
# peptide: Ac-LGANDQLISF[S5]DEG[S5]QEEKSSN-NH2
# modifications: staple 11-15
# SMILES: CC[C@H](C)[C@H](NC(=O)[C@H](CC(C)C)NC(=O)[C@H](CCC(N)=O)NC(=O)[C@H](CC(=O)O)NC(=O)[C@H](CC(N)=O)NC(=O)[C@H](C)NC(=O)CNC(=O)[C@H](CC(C)C)NC(C)=O)C(=O)N[C@@H](CO)C(=O)N[C@@H](Cc1ccccc1)C(=O)N[C@@]1(C)CCCC=CCCC[C@@](C)(C(=O)N[C@@H](CCC(N)=O)C(=O)N[C@@H](CCC(=O)O)C(=O)N[C@@H](CCC(=O)O)C(=O)N[C@@H](CCCCN)C(=O)N[C@@H](CO)C(=O)N[C@@H](CO)C(=O)N[C@@H](CC(N)=O)C(N)=O)NC(=O)CNC(=O)[C@H](CCC(=O)O)NC(=O)[C@H](CC(=O)O)NC1=O
# B10: SP45 (peptide)
# peptide: Ac-LGANDELISF[S5]DQG[S5]QEQKSSN-NH2
# modifications: staple 11-15
# SMILES: CC[C@H](C)[C@H](NC(=O)[C@H](CC(C)C)NC(=O)[C@H](CCC(=O)O)NC(=O)[C@H](CC(=O)O)NC(=O)[C@H](CC(N)=O)NC(=O)[C@H](C)NC(=O)CNC(=O)[C@H](CC(C)C)NC(C)=O)C(=O)N[C@@H](CO)C(=O)N[C@@H](Cc1ccccc1)C(=O)N[C@@]1(C)CCCC=CCCC[C@@](C)(C(=O)N[C@@H](CCC(N)=O)C(=O)N[C@@H](CCC(=O)O)C(=O)N[C@@H](CCC(N)=O)C(=O)N[C@@H](CCCCN)C(=O)N[C@@H](CO)C(=O)N[C@@H](CO)C(=O)N[C@@H](CC(N)=O)C(N)=O)NC(=O)CNC(=O)[C@H](CCC(N)=O)NC(=O)[C@H](CC(=O)O)NC1=O
# B11: SP36 (peptide)
# peptide: Ac-VERGLANVK[S5]SLV[S5]ES-NH2
# modifications: staple 10-14
# SMILES: CC(=O)N[C@H](C(=O)N[C@@H](CCC(=O)O)C(=O)N[C@@H](CCCNC(=N)N)C(=O)NCC(=O)N[C@@H](CC(C)C)C(=O)N[C@@H](C)C(=O)N[C@@H](CC(N)=O)C(=O)N[C@H](C(=O)N[C@@H](CCCCN)C(=O)N[C@@]1(C)CCCC=CCCC[C@@](C)(C(=O)N[C@@H](CCC(=O)O)C(=O)N[C@@H](CO)C(N)=O)NC(=O)[C@H](C(C)C)NC(=O)[C@H](CC(C)C)NC(=O)[C@H](CO)NC1=O)C(C)C)C(C)C
# B12: SP1 (peptide)
# peptide: Ac-NL[S5]NVK[S5]SLVNQS-NH2
# modifications: staple 3-7
# SMILES: CC(=O)N[C@@H](CC(N)=O)C(=O)N[C@@H](CC(C)C)C(=O)N[C@@]1(C)CCCC=CCCC[C@@](C)(C(=O)N[C@@H](CO)C(=O)N[C@@H](CC(C)C)C(=O)N[C@H](C(=O)N[C@@H](CC(N)=O)C(=O)N[C@@H](CCC(N)=O)C(=O)N[C@@H](CO)C(N)=O)C(C)C)NC(=O)[C@H](CCCCN)NC(=O)[C@H](C(C)C)NC(=O)[C@H](CC(N)=O)NC1=O
# notes: also called Ac-NL$NVK$SLVNQS-NH2
# Biological target: T1, C-terminally 6x Histidine-tagged …
# Experiment: competitive fluorescence polarization, FAM-labelled linear probe as competitor, His-tagged beta-catenin 134-668
# Method in brief: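 FP competition in 25 mM Tris-HCl pH 7.5, 200 mM NaCl, 5 mM CHAPS, 2 mM DTT at room temperature. Competitor peptides at 40–0.7 μM 2× working range, constant DMSO. Probe (benchmark peptide with N-terminal FAM via β-Ala spacer) from 25 nM 10× stock. Read after 3 h in the dark, ex 485/em 528 nm.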
row,IC50 [µM],Binder
1,≥ 100,B1
2,≥ 100,B2
3,23.9,B3
4,3.75,B4
5,6.63,B5
6,19.5,B6
7,3.08,B7
8,23.7,B8
9,24.4,B9
10,10.9,B10
11,≥ 100,B11
12,≥ 100,B12
